{"source": "patent US20120129768A1", "target": "Glucagon-like peptide-1 receptor (GLP1R)", "assay": "cell-based or functional assay"}
{"substance": "Liraglutide (peptide)", "values": [{"measurement": "Maximum reaction rate (%)", "result": 96.8, "unit": "%"}]}
